The term koff denotes the rate constant with which the complex falls apart. A lower koff goes with slow dissociation.

The source of these data is article PMC4266597, “Ultrastable cellulosome-adhesion complex tightens under load” (Nature Communications, 2014).

Assay [1] deals with T1, T129C Xyn-XMod-Doc protein (R. flavefaciens XMod-Doc from the CttA scaffoldin fused to the XynT6 xylanase … (Ruminococcus flavefaciens strain FD1, UniProt A0AEF5 565-803, engineered cysteine (T129C in the xylanase) coupled to a 5 kDa NHS-PEG-Mal linker on the cover glass or cantilever)).
T1 construct: X-module and dockerin (XMod-Doc) of the CttA scaffoldin of Ruminococcus flavefaciens strain FD1; The Xyn domain is a marker (fingerprint) and immobilisation domain and is written as a carrier under tags; Addgene 60865 holds the plasmid; also called XynT6-XDoc T129C; Xylanase-Xmodule-Dockerin; source: E. coli BL21, purified (Ni-NTA); not shown: XynT6 xylanase from Geobacillus stearothermophilus …
T1 sequence: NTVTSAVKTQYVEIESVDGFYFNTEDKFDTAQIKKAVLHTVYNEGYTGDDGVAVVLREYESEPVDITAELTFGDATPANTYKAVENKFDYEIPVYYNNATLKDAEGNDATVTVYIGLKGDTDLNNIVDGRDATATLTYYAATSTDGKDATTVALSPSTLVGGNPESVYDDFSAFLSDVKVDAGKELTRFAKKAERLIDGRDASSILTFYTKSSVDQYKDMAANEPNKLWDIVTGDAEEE
Put plainly: AFM single-molecule force spectroscopy; as a1, but final Doc:Coh rupture immediately following XMod unfolding (35–40% of traces); Bell-Evans fit. As to conditions: both partners purified.

Assay [2] deals with T1, T129C Xyn-XMod-Doc protein (R. …). As to the kind of experiment: AFM single-molecule force spectroscopy; both partners covalently immobilised through PEG linkers; configuration I: Coh-CBM on the cantilever, Xyn-XMod-Doc on the cover glass (configuration II the reverse); Ca-TBS (25 mM TRIS, 72 mM NaCl, 1 mM CaCl2, pH 7.2); pulling speeds 0.2 to 6.4 um/s; final complex rupture with intact XMod; Bell-Evans fit. As to conditions: both partners purified.

B1: Coh-CBM C2A, C63S fusion protein (R. flavefaciens CohE from ScaE fused to cellulose-binding module 3a (CBM3a) from C. thermocellum), with ybbR tag (domain or fragment, Ruminococcus flavefaciens strain FD1)
chain: ALTDRGMTYDLDPKDGSSAATKPVLEVTKKVFDTAADAAGQTVTVEFKVSGAEGKYATTGYHIYWDERLEVVATKTGAYAKKGAALEDSSLAKAENNGNGVFVASGADDDFGADGVMWTVELKVPADAKAGDVYPIDVAYQWDPSKGDLFTDNKDSAQGKLMQAYFFTQGIKSSSNPSTDEYLVKANATYADGYIAIKAGEP
modifications: ybbR tag covalently linked to Coenzyme A on PEG by Sfp phosphopantetheinyl transferase
notes: cohesin CohE of the ScaE scaffoldin of Ruminococcus flavefaciens strain FD1; The CBM is a marker (fingerprint) and immobilisation domain and is written as a carrier under tags; C2A reverts the earlier A2C in the CBM; also called CohE-CBM C2A C63S; Coh-CBM-ybbR; source: E. coli BL21(DE3) RIPL, purified (Ni-NTA); not shown: CBM3a from C. thermocellum with C2A and C63S, C-terminal, kept
For the molecule B1, in assay [1], the “koff of the rupture following XMod unfolding” value was determined as 0.00047 s⁻¹ and the “rupture force following XMod unfolding” value was roughly 300 pN. Further, in assay [2], the koff came out at 7.3e-07 s⁻¹.
